Data reported in US20240327522A1 (Genentech, published 2024).

Key:
[1] = molecular target: T1, recombinant mouse αvβ8 protein (PARS-17103) (murine, UniProt P43406 31-988; Q0VBD0 43-681, limits assumed); test: SPR binding assay, experiment 1, antibody as ligand, aVb8 as sample
T1 construct: Made in house; also called mu.aVb8.17103

[2] = molecular target: T2, recombinant cynomolgus monkey αvβ8 protein (PARS-19393) (cynomolgus monkey, UniProt A0A2K5WCD3 31-992; G7P0S0 43-684); test: as above
T2 construct: also called cyno.aVb8-19393; cyno.aVb8

[3] = molecular target: T3, recombinant human αvβ8 protein (PARS-17102) (human); test: as above
T3 construct: also called hu.aVb8.17102; not shown: C-terminal acid/basic coils and any purification tags
T3 alpha: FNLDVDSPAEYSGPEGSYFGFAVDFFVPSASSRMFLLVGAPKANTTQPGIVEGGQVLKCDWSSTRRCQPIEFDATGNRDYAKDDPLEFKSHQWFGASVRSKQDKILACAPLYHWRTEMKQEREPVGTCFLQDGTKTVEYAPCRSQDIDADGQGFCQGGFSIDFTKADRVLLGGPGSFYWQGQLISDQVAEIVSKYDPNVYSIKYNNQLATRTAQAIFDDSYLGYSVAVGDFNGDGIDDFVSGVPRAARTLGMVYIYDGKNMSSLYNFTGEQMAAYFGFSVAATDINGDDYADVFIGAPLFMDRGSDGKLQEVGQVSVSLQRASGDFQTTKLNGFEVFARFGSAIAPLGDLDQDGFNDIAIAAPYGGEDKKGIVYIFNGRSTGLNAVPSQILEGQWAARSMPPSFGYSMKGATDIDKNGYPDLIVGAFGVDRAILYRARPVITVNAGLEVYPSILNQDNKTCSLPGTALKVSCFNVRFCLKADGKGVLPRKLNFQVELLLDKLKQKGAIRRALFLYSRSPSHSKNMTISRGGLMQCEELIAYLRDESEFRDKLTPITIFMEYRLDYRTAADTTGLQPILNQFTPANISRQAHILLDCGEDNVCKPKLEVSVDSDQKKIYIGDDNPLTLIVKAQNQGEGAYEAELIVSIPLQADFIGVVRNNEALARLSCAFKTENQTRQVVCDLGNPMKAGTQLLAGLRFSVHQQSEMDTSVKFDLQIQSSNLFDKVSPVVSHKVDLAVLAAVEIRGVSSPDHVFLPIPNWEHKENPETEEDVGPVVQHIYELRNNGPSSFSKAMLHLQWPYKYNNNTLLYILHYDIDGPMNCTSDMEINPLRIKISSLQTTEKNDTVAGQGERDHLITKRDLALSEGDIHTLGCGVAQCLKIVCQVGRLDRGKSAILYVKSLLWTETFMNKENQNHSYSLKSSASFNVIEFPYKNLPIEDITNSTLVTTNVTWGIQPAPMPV
T3 beta: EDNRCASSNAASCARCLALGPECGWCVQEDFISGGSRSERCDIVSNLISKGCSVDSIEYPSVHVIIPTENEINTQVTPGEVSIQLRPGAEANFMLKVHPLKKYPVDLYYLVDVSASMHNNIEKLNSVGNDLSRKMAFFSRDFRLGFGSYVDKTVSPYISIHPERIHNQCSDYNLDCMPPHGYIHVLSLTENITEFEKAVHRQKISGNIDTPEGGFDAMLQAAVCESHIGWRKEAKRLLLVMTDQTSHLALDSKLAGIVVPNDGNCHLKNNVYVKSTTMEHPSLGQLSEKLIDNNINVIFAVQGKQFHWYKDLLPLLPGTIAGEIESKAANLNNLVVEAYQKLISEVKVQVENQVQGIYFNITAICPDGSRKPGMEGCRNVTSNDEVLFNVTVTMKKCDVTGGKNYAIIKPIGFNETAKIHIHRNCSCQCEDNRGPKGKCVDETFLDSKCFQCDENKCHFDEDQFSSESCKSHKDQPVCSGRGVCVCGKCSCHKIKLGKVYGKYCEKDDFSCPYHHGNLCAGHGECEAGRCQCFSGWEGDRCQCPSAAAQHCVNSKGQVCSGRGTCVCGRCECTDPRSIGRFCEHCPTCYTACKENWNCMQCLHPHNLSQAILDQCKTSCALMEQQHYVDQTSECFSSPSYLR

[4] = molecular target: T3, recombinant human αvβ8 protein …; test: SPR, Biacore T200, Protein A capture, human αvβ8 analyte 0-100 nM, 37 C, 1:1 model (comparison with hADWA11-2.4, FIG. 9B)
Experimental: The antibodies were first captured either on a Biacore™ Protein A biosensor chip (Cytiva Life Sciences) or on an anti-murine Fc chip to achieve approximately 60 response units. Binding measurements were performed using a running buffer composed of 10 mM HEPES (pH 7.4), 150 mM NaCl, 0.5 mM CaCl₂), and 0.005% Surfactant P20 (Cytiva Life Sciences). For comparison between αvβ8-65 and hC6D4, a 5-fold dilution series of human αvβ8 (range, 0-100 nM in running buffer) was injected into the Biacore™ T200. For comparison between αvβ8-65 and hADWA11-2.4, a 5-fold dilution series of human αvβ8 (range, 0-100 nM in running buffer) was injected. For comparison of all three antibodies in the murine Fc format, a 5-fold dilution series of human αvβ8 (range, 0-50 nM in running buffer) was injected. All injections were performed over 180 seconds, with a dissociation time of 1200 seconds, at a flow rate of 100 μL/minute and a temperature of 37° C. Between sample injections, a regeneration reagent (10 mM glycine pH 1.5 for protein A chip; 10 mM glycine pH 1.7 for anti-murine Fc chip) was injected to regenerate the sensor chip (twice, over 30 seconds at 10 μL/minute for each injection). To determine the binding kinetics and affinity constants of the antibodies to human αvβ8 protein, the signal from the reference flow cell (FC1, with only protein A on the surface) was “double referenced” by subtracting the signal observed after injecting the sample over FC1, followed by subtracting the signal observed after injecting only running buffer. The kinetic constants were calculated using nonlinear regression fitting of the data, according to a 1:1 Langmuir binding model, using Biacore™ Evaluation Software (Cytiva Life Sciences).
The values of the kinetic constants kon, koff, and KD for the binding of αvβ8-65, hC6D4 and ADWA11-2.4 to the various species of αvβ8 proteins are summarized in Table 13. A 1:1 Langmuir binding model was used to determine the KD values. The sensograms observed for the bindings of the various αvβ8 proteins to the captured antibody are shown in FIG. 9A, FIG. 9B, and FIG. 10.

T1 sequence (P43406 31-988 limits assumed, chain 1 of 2): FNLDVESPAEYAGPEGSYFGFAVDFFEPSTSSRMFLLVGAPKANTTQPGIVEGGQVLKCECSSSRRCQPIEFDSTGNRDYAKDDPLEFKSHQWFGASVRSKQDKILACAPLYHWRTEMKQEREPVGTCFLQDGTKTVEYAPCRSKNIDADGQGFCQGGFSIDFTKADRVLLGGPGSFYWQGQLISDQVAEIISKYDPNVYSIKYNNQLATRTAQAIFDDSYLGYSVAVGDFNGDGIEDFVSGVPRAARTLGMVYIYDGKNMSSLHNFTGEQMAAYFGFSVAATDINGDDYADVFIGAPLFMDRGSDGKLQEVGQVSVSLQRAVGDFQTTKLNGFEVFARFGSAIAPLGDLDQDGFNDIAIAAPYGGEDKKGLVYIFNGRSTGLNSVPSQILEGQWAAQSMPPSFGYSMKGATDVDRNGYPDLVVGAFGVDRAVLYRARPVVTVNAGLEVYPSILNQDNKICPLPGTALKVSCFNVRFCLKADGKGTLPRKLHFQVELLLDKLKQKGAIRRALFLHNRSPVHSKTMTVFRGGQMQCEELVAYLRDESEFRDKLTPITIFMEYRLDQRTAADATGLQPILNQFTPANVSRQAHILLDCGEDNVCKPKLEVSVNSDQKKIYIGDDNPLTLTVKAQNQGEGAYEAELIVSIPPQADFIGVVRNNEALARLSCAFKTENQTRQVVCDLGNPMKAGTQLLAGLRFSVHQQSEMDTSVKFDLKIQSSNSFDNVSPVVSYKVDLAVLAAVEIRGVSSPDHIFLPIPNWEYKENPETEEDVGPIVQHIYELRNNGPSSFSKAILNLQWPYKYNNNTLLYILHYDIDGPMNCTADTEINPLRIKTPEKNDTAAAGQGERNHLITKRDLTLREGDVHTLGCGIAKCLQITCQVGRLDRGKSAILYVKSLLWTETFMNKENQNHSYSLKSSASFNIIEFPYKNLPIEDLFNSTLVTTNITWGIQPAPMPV
T1 sequence (Q0VBD0 43-681 limits assumed, chain 2 of 2): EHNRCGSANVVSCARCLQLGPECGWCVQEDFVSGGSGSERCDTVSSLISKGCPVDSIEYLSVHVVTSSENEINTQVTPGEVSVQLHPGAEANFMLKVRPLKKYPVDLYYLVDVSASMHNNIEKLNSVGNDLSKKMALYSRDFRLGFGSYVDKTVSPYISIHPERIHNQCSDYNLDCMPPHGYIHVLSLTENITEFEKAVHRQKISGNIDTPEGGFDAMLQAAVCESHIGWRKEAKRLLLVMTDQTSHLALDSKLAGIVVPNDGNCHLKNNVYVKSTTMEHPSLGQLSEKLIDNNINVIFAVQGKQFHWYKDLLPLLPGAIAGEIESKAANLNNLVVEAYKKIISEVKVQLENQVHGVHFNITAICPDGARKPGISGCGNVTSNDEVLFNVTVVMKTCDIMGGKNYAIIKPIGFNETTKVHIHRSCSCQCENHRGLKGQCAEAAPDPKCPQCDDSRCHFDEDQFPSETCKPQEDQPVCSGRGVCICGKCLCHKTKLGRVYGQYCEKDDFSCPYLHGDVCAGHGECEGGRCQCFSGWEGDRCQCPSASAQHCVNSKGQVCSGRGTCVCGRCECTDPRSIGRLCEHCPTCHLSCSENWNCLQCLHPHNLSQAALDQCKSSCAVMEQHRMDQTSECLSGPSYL

- Kd [1]: 0.906 nM
- koff [1]: 0.000155 s⁻¹
- kon [1]: 171000 M⁻¹ s⁻¹
- Kd [2]: 0.48 nM
- koff [2]: 0.000164 s⁻¹
- kon [2]: 341000 M⁻¹ s⁻¹
- Kd [3]: 0.384 nM
- koff [3]: 0.000208 s⁻¹
- kon [3]: 540000 M⁻¹ s⁻¹
- Kd [4]: 0.528 nM
- koff [4]: 9.58e-05 s⁻¹
- kon [4]: 181000 M⁻¹ s⁻¹
B1: Hu.aVb8-65.H15L2 (aVb8-65.H15L2.hIgG1.LALAPG) (antibody, V domains shown)
VH: EVQLLESGGGLVQPGGSLRLSCAASGIDLSNYAMIWVRQAPGKGLEWVGIISSSDRIWYASWVKGRFTISRDNSKNTLYLQMNSLRAEDTAVYYCSRSVSNSYFDGWNLWGQGTLVTVSS
VL: DIQMTQSPSSVSASVGDRVTITCQASENINSLLAWYQQKPGKAPKLLIYRASTLASGVPSRFSGSGSGTDFTLTISSLQPEDFATYYCQSNYGFTGSGAFFYGFGQGTKVEIKR
notes: Human IgG1 LALAPG; also called PARS-20475-65 (IH) aVb8-65.H15L2.hIgG1.LALAPG; humanized αvβ8-65
